B1: sdCD33_4 (VHH)
VHH: QVKLEESGGGSVQAGESLRLSCTASGITFRDYDIDWYRQAPGKEREWLATITPSGTTHYPDSVKGRATISRDSAKNTVYLQMNSLKPEDTARYECNTLAYWGSGTQVTVSS
B2: sdCD33_3 (VHH)
VHH: DVQLVESGGGLVQPGGSLRLSCSVSGNIDRFYAMGWYRQAPGKQRELVAQLTNNEITTYGDSVEGQFSISGDFDANTVYLQMDSLKPEDTAVYYCHAHVTTTRWSQDYYWGQGTRVTVSS
B3: sdCD33_2 (VHH)
VHH: QVQLVQPGGSLRLFCVASEEFFSIYAMGWYRQAPGKQHEMVARFTRDGKITYADSAKGRFTITRDAKNTLNLQMNGLIPEDTAVYYCNINHYWGQGTQVTVSS
B4: sdCD33_10 (VHH)
VHH: QVQLVETGGGLVRAGGSLRLSCAASGRTADIYNIGWFRQAPGKEREFVAAITWIGRTPYYADAVKGRFAFSTDSAKNTVSLQMDNLKPEDTGVYYCNAAHYLEGNTDYYWGQGTQVTVSS
B5: Anti-CD33 CAR 6 (other)
chain: QVQLVETGGGLVRAGGSLRLSCAASGRTADIYNIGWFRQAPGKEREFVAAITWIGRTPYYADAVKGRFAFSTDSAKNTVSLQMDNLKPEDTGVYYCNAAHYLEGNTDYYWGQGTQVTVSSAAATTTPAPRPPTPAPTIASQPLSLRPEACRPAAGGAVHTRGLDFACDIYIWAPLAGTCGVLLLSLVITLYCKRGRKKLLYIFKQPFMRPVQTTQEEDGCSCRFPEEEEGGCELRVKFSRSADAPAYQQGQNQLYNELNLGRREEYDVLDKRRGRDPEMGGKPRRKNPQEGLYNELQKDKMAEAYSEIGMKGERRRGKGHDGLYQGLSTATKDTYDALHMQALPPR

molecular target: CD33-GFP fusion protein, wild type (WT), on 293FT cells (UniProt P20138); assay: FACS, WT CD33-GFP on 293FT cells
Sequence (P20138 18-364): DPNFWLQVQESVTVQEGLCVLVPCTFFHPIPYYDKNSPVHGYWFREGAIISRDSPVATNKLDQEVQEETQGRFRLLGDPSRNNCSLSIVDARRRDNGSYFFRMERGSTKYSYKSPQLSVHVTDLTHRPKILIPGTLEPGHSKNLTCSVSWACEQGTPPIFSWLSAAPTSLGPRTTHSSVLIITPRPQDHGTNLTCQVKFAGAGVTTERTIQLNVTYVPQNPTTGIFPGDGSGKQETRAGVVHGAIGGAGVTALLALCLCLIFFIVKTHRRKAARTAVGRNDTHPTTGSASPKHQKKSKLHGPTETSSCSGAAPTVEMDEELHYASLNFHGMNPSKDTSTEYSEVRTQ

| Molecule | FACS binding data |
| --- | --- |
| hu195 (antibody) | 97.8 |
| B1 | 98.4 |
| B2 | 98.3 |
| B3 | 98.3 |
| B4 | 98 |

molecular target: CD33 on MOLM-13 cells (human, UniProt P20138 18-364); assay: cell-based or functional assay
Sequence (P20138 18-364): as above

| Molecule | Ratio | Testing FP2 Expression (CD33+) |
| --- | --- | --- |
| B5 | 3.6 | 22.9 % of constitutive-fluorescence-positive cells |

molecular target: Mutant CD33-GFP JS23 (L23N) on 293FT cells (UniProt P20138); assay: FACS, mutant CD33-GFP on 293FT cells
Sequence (P20138 18-364 L23N): as the sequence (P20138 18-364) above, with L6N counted along it

| Molecule | FACS binding data |
| --- | --- |
| B1 | 99 |
| B2 | 99.1 |
| B3 | 95.4 |
| B4 | 98.4 |

molecular target: Mutant CD33-GFP JS24 (Q24E) on 293FT cells (UniProt P20138); assay: FACS, mutant CD33-GFP on 293FT cells
Sequence (P20138 18-364 Q24E): as the sequence (P20138 18-364) above, with Q7E counted along it

| Molecule | FACS binding data |
| --- | --- |
| B1 | 99.3 |
| B2 | 99.4 |
| B3 | 98.8 |
| B4 | 98.2 |

molecular target: Mutant CD33-GFP JS25 (V25M) on 293FT cells (UniProt P20138); assay: FACS, mutant CD33-GFP on 293FT cells
Sequence (P20138 18-364 V25M): as the sequence (P20138 18-364) above, with V8M counted along it

| Molecule | FACS binding data |
| --- | --- |
| B1 | 99.5 |
| B2 | 99.7 |
| B3 | 99.3 |
| B4 | 99.6 |

molecular target: Mutant CD33-GFP JS28 (S28L) on 293FT cells (UniProt P20138); assay: FACS, mutant CD33-GFP on 293FT cells
Sequence (P20138 18-364 S28L): as the sequence (P20138 18-364) above, with S11L counted along it

| Molecule | FACS binding data |
| --- | --- |
| B1 | 99.6 |
| B2 | 99.6 |
| B3 | 99.5 |
| B4 | 99.6 |

molecular target: Mutant CD33-GFP M10 (Y127A) on 293FT cells (UniProt P20138); assay: FACS, mutant CD33-GFP on 293FT cells
Sequence (P20138 18-364 Y127A): as the sequence (P20138 18-364) above, with Y110A counted along it

| Molecule | FACS binding data |
| --- | --- |
| B1 | 97.2 |
| B2 | 96.3 |
| B3 | 98.5 |
| B4 | 93.9 |

molecular target: Mutant CD33-GFP M11 (L78T) on 293FT cells (UniProt P20138); assay: FACS, mutant CD33-GFP on 293FT cells
Sequence (P20138 18-364 L78T): as the sequence (P20138 18-364) above, with L61T counted along it

| Molecule | FACS binding data |
| --- | --- |
| B1 | 62.8 |
| B2 | 78 |
| B3 | 33.4 |
| B4 | 67.3 |

molecular target: Mutant CD33-GFP M12 (G88S) on 293FT cells (UniProt P20138); assay: FACS, mutant CD33-GFP on 293FT cells
Sequence (P20138 18-364 G88S): as the sequence (P20138 18-364) above, with G71S counted along it

| Molecule | FACS binding data |
| --- | --- |
| B1 | 99 |
| B2 | 99 |
| B3 | 98.2 |
| B4 | 98.6 |

molecular target: Mutant CD33-GFP M13 (R91E) on 293FT cells (UniProt P20138); assay: FACS, mutant CD33-GFP on 293FT cells
Sequence (P20138 18-364 R91E): as the sequence (P20138 18-364) above, with R74E counted along it

| Molecule | FACS binding data |
| --- | --- |
| B1 | 99.1 |
| B2 | 98.7 |
| B3 | 98.6 |
| B4 | 98.5 |

molecular target: Mutant CD33-GFP M14 (E170R) on 293FT cells (UniProt P20138); assay: FACS, mutant CD33-GFP on 293FT cells
Sequence (P20138 18-364 E170R): as the sequence (P20138 18-364) above, with E153R counted along it

| Molecule | FACS binding data |
| --- | --- |
| B1 | 98.8 |
| B2 | 98.7 |
| B3 | 98.2 |
| B4 | 98.4 |

molecular target: Mutant CD33-GFP M15 (Q171A) on 293FT cells (UniProt P20138); assay: FACS, mutant CD33-GFP on 293FT cells
Sequence (P20138 18-364 Q171A): as the sequence (P20138 18-364) above, with Q154A counted along it

| Molecule | FACS binding data |
| --- | --- |
| B1 | 98.8 |
| B2 | 98.2 |
| B3 | 98.7 |
| B4 | 98.9 |

molecular target: Mutant CD33-GFP M16 (4889AII) on 293FT cells (UniProt P20138); assay: FACS, mutant CD33-GFP on 293FT cells

| Molecule | FACS binding data |
| --- | --- |
| B1 | 98.7 |
| B2 | 98.4 |
| B3 | 98.4 |
| B4 | 98.6 |

molecular target: Mutant CD33-GFP M17 (F21Y) on 293FT cells (UniProt P20138); assay: FACS, mutant CD33-GFP on 293FT cells
Sequence (P20138 18-364 F21Y): as the sequence (P20138 18-364) above, with F4Y counted along it

| Molecule | FACS binding data |
| --- | --- |
| B1 | 98.5 |
| B2 | 98.2 |
| B3 | 98.9 |
| B4 | 94.1 |

molecular target: Mutant CD33-GFP M18 (353AAL) on 293FT cells (UniProt P20138); assay: FACS, mutant CD33-GFP on 293FT cells

| Molecule | FACS binding data |
| --- | --- |
| B1 | 99.5 |
| B2 | 99 |
| B3 | 97.3 |
| B4 | 15.6 |

molecular target: Mutant CD33-GFP M19 (348ATAI) on 293FT cells (UniProt P20138); assay: FACS, mutant CD33-GFP on 293FT cells

| Molecule | FACS binding data |
| --- | --- |
| B1 | 99.6 |
| B2 | 99.6 |
| B3 | 99 |
| B4 | 98.3 |

molecular target: Mutant CD33-GFP M4 (R122D) on 293FT cells (UniProt P20138); assay: FACS, mutant CD33-GFP on 293FT cells
Sequence (P20138 18-364 R122D): as the sequence (P20138 18-364) above, with R105D counted along it

| Molecule | FACS binding data |
| --- | --- |
| B1 | 6.01 |
| B2 | 98.5 |
| B3 | 1.43 |
| B4 | 21.1 |

molecular target: Mutant CD33-GFP M5 (AEAD), quadruple mutant, on 293FT cells (UniProt P20138); assay: FACS, mutant CD33-GFP on 293FT cells
Sequence (P20138 other isoform, or with tags, fused parts or gaps mutant): as the sequence (P20138 18-364) above, with W5A, H28E, N82A, R105D counted along it

| Molecule | FACS binding data |
| --- | --- |
| B1 | 0.16 |
| B2 | 0.31 |
| B3 | 0.41 |
| B4 | 0.12 |

molecular target: Mutant CD33-GFP M9 (Y49, 50A) on 293FT cells (UniProt P20138); assay: FACS, mutant CD33-GFP on 293FT cells
Sequence (P20138 other isoform, or with tags, fused parts or gaps mutant): as the sequence (P20138 18-364) above, with Y32A, Y33A counted along it

| Molecule | FACS binding data |
| --- | --- |
| B1 | 97.4 |
| B2 | 0.64 |
| B3 | 0.39 |
| B4 | 0.22 |

molecular target: Mutant CD33-GFP N20D on 293FT cells (UniProt P20138); assay: FACS, mutant CD33-GFP on 293FT cells
Sequence (P20138 18-364 N20D): as the sequence (P20138 18-364) above, with N3D counted along it

| Molecule | FACS binding data |
| --- | --- |
| B1 | 98.5 |
| B2 | 98.7 |
| B3 | 98.9 |
| B4 | 96.6 |

molecular target: T1, Mutant CD33-GFP M1 (W22A) on 293FT cells (UniProt P20138 18-364); assay: FACS, mutant CD33-GFP on 293FT cells
T1 construct: whole, on cells; not shown: GFP fused to CD33
T1 sequence (P20138 18-364 W22A): as the sequence (P20138 18-364) above, with W5A counted along it

| Molecule | FACS binding data |
| --- | --- |
| B1 | 99.3 |
| B2 | 99.4 |
| B3 | 8.08 |
| B4 | 99.1 |

molecular target: T2, Mutant CD33-GFP M2 (H45E) on 293FT cells (UniProt P20138 18-364); assay: FACS, mutant CD33-GFP on 293FT cells
T2 construct: whole, on cells; not shown: GFP fused to CD33
T2 sequence (P20138 18-364 H45E): as the sequence (P20138 18-364) above, with H28E counted along it

| Molecule | FACS binding data |
| --- | --- |
| B1 | 84.4 |
| B2 | 98.8 |
| B3 | 2.54 |
| B4 | 65.5 |

molecular target: T3, Mutant CD33-GFP M3 (N99A) on 293FT cells (UniProt P20138 18-364); assay: FACS, mutant CD33-GFP on 293FT cells
T3 construct: whole, on cells; not shown: GFP fused to CD33
T3 sequence (P20138 18-364 N99A): as the sequence (P20138 18-364) above, with N82A counted along it

| Molecule | FACS binding data |
| --- | --- |
| B1 | 97 |
| B2 | 99.4 |
| B3 | 81.9 |
| B4 | 99 |

molecular target: T4, Mutant CD33-GFP M6 (F43N) on 293FT cells (UniProt P20138 18-364); assay: FACS, mutant CD33-GFP on 293FT cells
T4 construct: whole, on cells; not shown: GFP fused to CD33
T4 sequence (P20138 18-364 F43N): as the sequence (P20138 18-364) above, with F26N counted along it

| Molecule | FACS binding data |
| --- | --- |
| B1 | 98.3 |
| B2 | 99 |
| B3 | 95.3 |
| B4 | 97.6 |

molecular target: T5, Mutant CD33-GFP M7 (R98D) on 293FT cells (UniProt P20138 18-364); assay: FACS, mutant CD33-GFP on 293FT cells
T5 construct: whole, on cells; not shown: GFP fused to CD33
T5 sequence (P20138 18-364 R98D): as the sequence (P20138 18-364) above, with R81D counted along it

| Molecule | FACS binding data |
| --- | --- |
| B1 | 21.5 |
| B2 | 98.8 |
| B3 | 0.48 |
| B4 | 97.1 |

molecular target: T6, Mutant CD33-GFP M8 (K52A) on 293FT cells (UniProt P20138 18-364); assay: FACS, mutant CD33-GFP on 293FT cells
T6 construct: whole, on cells; not shown: GFP fused to CD33
T6 sequence (P20138 18-364 K52A): as the sequence (P20138 18-364) above, with K35A counted along it

| Molecule | FACS binding data |
| --- | --- |
| B1 | 0.15 |
| B2 | 97.3 |
| B3 | 91.2 |
| B4 | 66.1 |

molecular target: Biotinylated CD33 protein (UniProt P20138); assay: Octet competition on biotinylated CD33; competitor 348
Sequence (P20138 18-259 limits assumed): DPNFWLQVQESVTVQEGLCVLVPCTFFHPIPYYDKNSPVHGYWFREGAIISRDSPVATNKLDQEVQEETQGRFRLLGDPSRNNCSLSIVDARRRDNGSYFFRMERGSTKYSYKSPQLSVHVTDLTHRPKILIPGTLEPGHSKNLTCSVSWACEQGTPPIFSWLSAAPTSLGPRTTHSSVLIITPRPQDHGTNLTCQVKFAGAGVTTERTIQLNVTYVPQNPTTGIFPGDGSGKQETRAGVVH

| Molecule | Octet signal |
| --- | --- |
| B1 | -0.146 |
| B2 | 0.0077 |
| B4 | 0.616 |

molecular target: Biotinylated CD33 protein (UniProt P20138); assay: Octet competition on biotinylated CD33; competitor 353

| Molecule | Octet signal |
| --- | --- |
| B1 | -0.101 |
| B3 | 0.322 |
| B4 | 1.01 |

molecular target: Biotinylated CD33 protein (UniProt P20138); assay: Octet competition on biotinylated CD33; competitor 389

| Molecule | Octet signal |
| --- | --- |
| B2 | 0.152 |
| B3 | 0.584 |
| B4 | 1.16 |

molecular target: Biotinylated CD33 protein (UniProt P20138); assay: Octet competition on biotinylated CD33; competitor 413

| Molecule | Octet signal |
| --- | --- |
| B1 | -0.0267 |
| B2 | 0.0204 |
| B3 | 0.623 |
| B4 | 0.865 |

molecular target: Biotinylated CD33 protein (UniProt P20138); assay: Octet competition on biotinylated CD33; competitor 416

| Molecule | Octet signal |
| --- | --- |
| B1 | -0.28 |
| B2 | -0.0696 |
| B3 | 0.0635 |
| B4 | 0.552 |

molecular target: Biotinylated CD33 protein (UniProt P20138); assay: Octet competition on biotinylated CD33; competitor 420

| Molecule | Octet signal |
| --- | --- |
| B1 | -0.0649 |
| B2 | -0.0387 |
| B3 | 0.381 |
| B4 | 0.95 |

molecular target: Biotinylated CD33 protein (UniProt P20138); assay: Octet competition on biotinylated CD33; competitor 424

| Molecule | Octet signal |
| --- | --- |
| B1 | -0.271 |
| B2 | -0.108 |
| B3 | 0.0143 |
| B4 | 0.628 |

molecular target: Biotinylated CD33 protein (UniProt P20138); assay: Octet competition on biotinylated CD33; competitor 426

| Molecule | Octet signal |
| --- | --- |
| B1 | -0.137 |
| B2 | -0.0122 |
| B3 | 0.158 |
| B4 | 0.543 |

molecular target: Biotinylated CD33 protein (UniProt P20138); assay: Octet competition on biotinylated CD33; competitor 429

| Molecule | Octet signal |
| --- | --- |
| B1 | -0.26 |
| B2 | -0.13 |
| B3 | 0.0422 |

molecular target: Biotinylated CD33 protein (UniProt P20138); assay: Octet competition on biotinylated CD33; competitor 430

| Molecule | Octet signal |
| --- | --- |
| B1 | 0.0905 |
| B2 | 0.231 |
| B3 | 0.651 |
| B4 | 1.44 |

molecular target: Biotinylated CD33 protein (UniProt P20138); assay: Octet competition on biotinylated CD33; competitor h195

| Molecule | Octet signal |
| --- | --- |
| B1 | 0.355 |
| B2 | 0.295 |
| B3 | 0.799 |
| B4 | 1.37 |
